Test results taken from publication PMC4714757, “Leishmania infantum Asparagine Synthetase A Is Dispensable for Parasites Survival and Infectivity” (PLoS Neglected Tropical Diseases, 2016).

B1: LiAS-A (Leishmania infantum asparagine synthetase A) (Leishmania infantum) (protein)
chain: MSSSPQEYIDLQTRILRVKTIFAEELASALNLIQVECPMLACVGDGTQDNLSGVEKAVQVHVKEIPGANYEVVHSLAKWKRMTLGNHRFPVGRGIFTNMRALRVEETLDNIHSVYVDQWDWERVIAPADRCLEYLQATVRSLYEVLRETESRLCTEFPDIAPILPDSIKFVHTEQLLKRYPELDPKSREREAVKKLGAVFLIGIGCKLSHGDHHDVRAPDYDDWSSPVSVDSSKIGFPTADDEKPSVNTIMSLQGLNGDILVYNPVLDDVLELSSMGIRVDQEALRRQLEITGTSDRLQCRWHQCVLNGDLPQTIGGGIGQSRTVMFMLRKRHIGEVQCSVWPHEVTAQYSLL
notes: full length, 353 residues, N-terminal 6xHis tag (pET28a) with no cleavage stated, E. coli BL21(DE3)

Columns and labels:
[1] = biological target: Leishmania infantum asparagine synthetase A, recombinant, poly-His-tagged (Leishmania infantum); experiment: SEC; analytic size exclusion chromatography of purified recombinant LiAS-A on Superose 12 10/300GL, calibrated with standards (Kav against Log MW and Log Stokes radius); oligomeric state of the native protein
[2] = substrate: Nc1ncnc2c1ncn2[C@@H]1O[C@H](COP(=O)(O)OP(=O)(O)OP(=O)(O)O)[C@@H](O)[C@H]1O; experiment: colorimetric assay of Asn formation, steady state; type: biochemical, Leishmania infantum; details: other substrates in excess, 8.4 mM Mg2+, 85 mM Tris.HCl pH 7.6, 37°C
Source text: (§1) colorimetric assay of Asn formation, steady state on LiAS-A (Leishmania infantum asparagine synthetase A)

[3] = substrate: N[C@@H](CC(=O)O)C(=O)O; experiment: colorimetric assay of Asn formation, steady state; type: biochemical, Leishmania infantum; details: other substrates in excess, 8.4 mM Mg2+, 85 mM Tris.HCl pH 7.6, 37°C
Source text: as §1

[4] = substrate: NC(=O)CC[C@H](N)C(=O)O; experiment: colorimetric assay of Asn formation, steady state; type: biochemical, Leishmania infantum; details: glutamine as nitrogen donor, other substrates in excess, 8.4 mM Mg2+, 85 mM Tris.HCl pH 7.6, 37°C
Source text: as §1

Molecule | stoichiometry N [1] | Km [2] [µM] | kcat [2] [s⁻¹] | Km [3] [µM] | kcat [3] [s⁻¹] | Km [4] [µM] | kcat [4] [s⁻¹]
Leishmania infantum asparagine synthetase A, recombinant, poly-His-tagged (enzyme) | 2 | – | – | – | – | – | –
B1 | – | 1470 ± 40 | 4.18 ± 0.02 | 6210 ± 1150 | 9.19 ± 0.69 | 1710 ± 280 | 4.51 ± 0.19
